The values that follow come from patent US20260062463A1 (KANGYUAN BIOMEDICAL TECH DALIAN, published 2026).

By Kd is commonly meant the concentration at which binding is half-saturated. Low values mean higher affinity, high ones lower affinity. Usually koff stands for the first-order rate constant of dissociation. Lower therefore signals a long-lived complex. One may read the kon as the rate constant with which the complex forms.

One experiment concerns the target T1, AAV8 (adeno-associated virus 8, Assembled 60-mer capsid of VP1/VP2/VP3 (nested products of one cap gene), amine-coupled to a CM5 chip; the letters give one VP1 subunit only.).
T1 construct: also called adeno-associated virus serotype 8
T1 chain: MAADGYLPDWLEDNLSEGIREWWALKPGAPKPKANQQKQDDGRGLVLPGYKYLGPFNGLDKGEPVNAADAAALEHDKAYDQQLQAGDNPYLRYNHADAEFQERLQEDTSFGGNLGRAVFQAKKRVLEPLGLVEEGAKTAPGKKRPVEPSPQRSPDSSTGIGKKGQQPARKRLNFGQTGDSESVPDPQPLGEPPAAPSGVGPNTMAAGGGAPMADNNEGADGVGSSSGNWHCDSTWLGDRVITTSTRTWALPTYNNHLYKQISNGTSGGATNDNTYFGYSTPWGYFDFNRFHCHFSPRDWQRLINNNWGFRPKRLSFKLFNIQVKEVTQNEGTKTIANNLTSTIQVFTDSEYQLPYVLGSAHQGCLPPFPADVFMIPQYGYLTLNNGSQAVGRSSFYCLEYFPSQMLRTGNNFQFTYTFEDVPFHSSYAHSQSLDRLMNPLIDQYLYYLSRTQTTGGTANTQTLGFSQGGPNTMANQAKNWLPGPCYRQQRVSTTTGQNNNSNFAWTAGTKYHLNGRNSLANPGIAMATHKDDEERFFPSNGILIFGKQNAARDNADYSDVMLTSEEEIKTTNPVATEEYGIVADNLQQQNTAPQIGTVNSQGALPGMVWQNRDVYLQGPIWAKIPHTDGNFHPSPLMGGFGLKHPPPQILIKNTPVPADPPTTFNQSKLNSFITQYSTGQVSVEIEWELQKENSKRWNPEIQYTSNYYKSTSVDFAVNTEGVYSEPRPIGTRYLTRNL
The experiment is described as follows: SPR, AAV amine-coupled to CM5 chip.

The next experiment addresses T2, AAV5 (adeno-associated virus 5, Assembled 60-mer capsid of VP1/VP2/VP3 (nested products of one cap gene), amine-coupled to a CM5 chip; the letters give one VP1 subunit only.).
T2 construct: also called adeno-associated virus serotype 5
Briefly: SPR, AAV amine-coupled to CM5 chip.

B1: A4-D9 (bispecific antibody)
chain: VQLQESGGGLVHSGGSLRLSCAASGSMFSLNTMGWYRQAPGKQRELVATITRGGGTSYADSVKGRFTISRDNAKNTVYLQMNSLRPEDTAVYYCHVDELRQSSWTTSNLWGQGTQVTVSSGGGGSGGGGSGGGGSVQLQESGGGLVQPGGSLRLSCAASGSRFSLNTMGWYRQAPGKQRELVATVTRGGSTNYADFVKGRFTISRDNAKNTVYLQMNSLRPEDTAVYYCHVDELRESGWTTSNLWGQGTQVTVSSGGGGSGGGGSGGGGSVQLQESGGGLVQPGGSLRLSCAASGSRFSLNTMGWYRQAPGKQRELVATVTRGGSTNYADFVKGRFTISRDNAKNTVYLQMNSLRPEDTAVYYCHVDELRESGWTTSNLWGQGTQVTVSSGGGGSGGGGSGGGGSVQLQESGGGLVQTGGSLRLSCAASGRAFSLNTMGWYRQAPGKWRELVATVTRGGSTNYAGSVKGRFTISRDNAKNTVYLQMNNLRPEDTAVYYCHVDEVRESSWTTSNLWGQGTQVTVSS
With B1, in the experiment with AAV8, the Kd turned out to be 0.318 nM, the koff amounted to 9.9e-06 s⁻¹ and the kon came to 31100 M⁻¹ s⁻¹.

B2: A4-D11 (other)
chain: VQLQESGGGLVQPGGSLRLSCAASGRGFSINTMGWYRQAPGKQRELVAAVTRGGTTNYADSVKGRFTISRDNAKNTVYLQMNSLRPEDTAVYYCHVDEVRQSSWTTSNLWGQGTQVTVSSGGGGSGGGGSGGGGSVQLQESGGGLVQPGGSLRLSCAASGSIFSINTMGWYRQAPGKQRELVAAVTRGGSTNYADSVKGRFTISRDNAKNTVYLQMNSLRPEDTAVYYCHVDEVRQSSWTTSNLWGQGTQVTVSSGGGGSGGGGSGGGGSVQLQESGGGLVQPGGSLRLSCAASGSIFIINTMGWYRRAPGKQRELVAAVTRGGSTNYADSVKGRFTISRDNAKNTVYLQMNSLRPEDTAVYYCHVDEVRQSSWTTSNLWGQGTQVTVSSGGGGSGGGGSGGGGSVQLQESGGGLVQPGGSLRLSCAASGSSFVINTMGWYRQAPGKQRELVAAVTRGGSTNYADSVKGRFTISRDNAKNTVYLQMNSLRPEDTAVYYCHVDEVRQSSWTTSNLWGQGTQVTVSS
In the experiment with AAV8, B2 showed a Kd of 0.319 nM, a koff of 1.5e-05 s⁻¹ and a kon of 47000 M⁻¹ s⁻¹.

B3: A4-D1 (VHH)
chain: VQLQESGGGLAQAGGSLRLSCAASGRGFSINTMGWYRQAPGKQRELVAAVTRGGTTNYADSVKGRFTISRDNAKNTVYLQMNSLRPEDTAVYYCHVDEVRQSSWTTSNLWGQGTQVTVSSGGGGSGGGGSGGGGSVQLQESGGGLAQAGGSLRLSCAASGRGFSINTMGWYRQAPGKQRELVAAVTRGGTTNYADSVKGRFTISRDNAKNTVYLQMNSLRPEDTAVYYCHVDEVRQSSWTTSNLWGQGTQVTVSSGGGGSGGGGSGGGGSVQLQESGGGLAQAGGSLRLSCAASGRGFSINTMGWYRQAPGKQRELVAAVTRGGTTNYADSVKGRFTISRDNAKNTVYLQMNSLRPEDTAVYYCHVDEVRQSSWTTSNLWGQGTQVTVSSGGGGSGGGGSGGGGSVQLQESGGGLAQAGGSLRLSCAASGRGFSINTMGWYRQAPGKQRELVAAVTRGGTTNYADSVKGRFTISRDNAKNTVYLQMNSLRPEDTAVYYCHVDEVRQSSWTTSNLWGQGTQVTVSS
With B3, in the experiment with AAV5, the affinity, expressed as Kd, was 0.0576 nM; the koff was 2.2e-06 s⁻¹; the kon came to 38200 M⁻¹ s⁻¹.

B4: A4-D3 (VHH)
chain: VQLQESGGGLAQAGGSLRLSCAASGRGFSINTMGWYRQAPGKQRELVAAVTRGGTTNYADSVKGRFTISRDNAKNTVYLQMNSLRPEDTAVYYCHVDEVRQSSWTTSNLWGQGTQVTVSSGGGGSGGGGSGGGGSVQLQESGGGLAQAGGSLRLSCAASGRGFSINTMGWYRQAPGKQRELVAAVTRGGTTNYADSVKGRFTISRDNAKNTVYLQMNSLRPEDTAVYYCHVDEVRQSSWTTSNLWGQGTQVTVSSGGGGSGGGGSGGGGSVQLQESGGGLAQAGGSLRLSCAASGRGFSINTMGWYRQAPGKQRELVAAVTRGGTTNYADSVKGRFTISRDNAKNTVYLQMNSLRPEDTAVYYCHVDEVRQSSWTTSNLWGQGTQVTVSSGGGGSGGGGSGGGGSVQLQESGGGLVQPGGSLRLSCAASGRGFSINTMGWYRQAPGKQRELVAAVTRGGTTNYADSVKGRFTISRDNAKNTVYLQMNSLRPEDTAVYYCHVDEVRQSSWTTSNLWGQGTQVTVSS
With B4, in the experiment with AAV5, the Kd was determined as 0.209 nM, the koff was 3.6e-06 s⁻¹ and the kon is 17300 M⁻¹ s⁻¹.

B5: A4-D4 (VHH)
chain: VQLQESGGGLAQAGGSLRLSCAASGRGFSINTMGWYRQAPGKQRELVAAVTRGGTTNYADSVKGRFTISRDNAKNTVYLQMNSLRPEDTAVYYCHVDEVRQSSWTTSNLWGQGTQVTVSSGGGGSGGGGSGGGGSVQLQESGGGLVQPGGSLRLSCAASGRGFSINTMGWYRQAPGKQRELVAAVTRGGTTNYADSVKGRFTISRDNAKNTVYLQMNSLRPEDTAVYYCHVDEVRQSSWTTSNLWGQGTQVTVSSGGGGSGGGGSGGGGSVQLQESGGGLAQAGGSLRLSCAASGRGFSINTMGWYRQAPGKQRELVAAVTRGGTTNYADSVKGRFTISRDNAKNTVYLQMNSLRPEDTAVYYCHVDEVRQSSWTTSNLWGQGTQVTVSSGGGGSGGGGSGGGGSVQLQESGGGLAQAGGSLRLSCAASGRGFSINTMGWYRQAPGKQRELVAAVTRGGTTNYADSVKGRFTISRDNAKNTVYLQMNSLRPEDTAVYYCHVDEVRQSSWTTSNLWGQGTQVTVSS
Take B5: in the experiment with AAV5, the Kd was found to be 0.657 nM, the dissociation rate constant (koff) worked out at 1.73e-05 s⁻¹ and the on-rate constant (kon) came to 26300 M⁻¹ s⁻¹.

B6: A4-D7 (bispecific antibody)
chain: VQLQESGGGLVQTGGSLRLSCAASGRAFSLNTMGWYRQAPGKWRELVATVTRGGSTNYAGSVKGRFTISRDNAKNTVYLQMNNLRPEDTAVYYCHVDEVRESSWTTSNLWGQGTQVTVSSGGGGSGGGGSGGGGSVQLQESGGGLVQPGGSLRLSCAASGSIFTINSMGWYRQAPGKWRELVATVTRGGNTNYANSVKGRFTISRDNAKNTVYLQMNTLRPEDTAVYYCHLDEVRDSSWTTSNLWGQGTQVTVSSGGGGSGGGGSGGGGSVQLQESGGGLVQPGGSLRLSCAASGSIFSINSMGWYRQAPGKWRELVATVTRGGSTNYANSVKGRFTISRDNAKNTVYLQMNTLRPEDTAVYYCHLDEVRDSSWTTSNLWGQGTQVTVSSGGGGSGGGGSGGGGSVQLQESGGGLVQTGGSLRLSCAASGRAFSLNTMGWYRQAPGKWRELVATVTRGGSTNYAGSVKGRFTISRDNAKNTVYLQMNNLRPEDTAVYYCHVDEVRESSWTTSNLWGQGTQVTVSS
In the experiment with AAV8, B6 had a dissociation constant Kd of 1.41 nM, an off-rate constant (koff) of 1.79e-05 s⁻¹ and a kon of 12700 M⁻¹ s⁻¹.

B7: A4-D8 (bispecific antibody)
chain: VQLQESGGGLVQPGGSLRLSCAASGSRFSLNTMGWYRQAPGKQRELVATVTRGGSTNYADSVKGRFTISRDNAKNTVYLQMNSLRPEDTAVYYCHVDELRESGWTTSNLWGQGTQVTVSSGGGGSGGGGSGGGGSVQLQESGGGLVQPGGSLRLSCAASGSRFSLNTMGWYRQAPGKQRELVATVTRGGSTNYADFVKGRFTISRDNAKNTVYLQMNSLRPEDTAVYYCHVDELRESGWTTSNLWGQGTQVTVSSGGGGSGGGGSGGGGSVQLQESGGGLVHSGGSLRLSCAASGSMFSLNTMGWYRQAPGKQRELVATITRGGGTSYADSVKGRFTISRDNAKNTVYLQMNSLRPEDTAVYYCHVDELRQSSWTTSNLWGQGTQVTVSSGGGGSGGGGSGGGGSVQLQESGGGLVQPGGSLRLSCAASGSRFSLNTMGWYRQAPGKQRELVATVTRGGSTNYADFVKGRFTISRDNAKNTVYLQMNSLRPEDTAVYYCHVDELRESGWTTSNLWGQGTQVTVSS
In the experiment with AAV8, B7 had a dissociation constant Kd of 0.228 nM, a dissociation rate constant (koff) of 1.1e-05 s⁻¹ and a kon of 48200 M⁻¹ s⁻¹.

B8: A4-D6 (bispecific antibody)
chain: VQLQESGGGLVQTGGSLRLSCAASGRAFSLNTMGWYRQAPGKWRELVATVTRGGSTNYAGSVKGRFTISRDNAKNTVYLQMNNLRPEDTAVYYCHVDEVRESSWTTSNLWGQGTQVTVSSGGGGSGGGGSGGGGSVQLQESGGGLVQTGGSLRLSCAASGRAFSLNTMGWYRQAPGKWRELVATVTRGGSTNYAGSVKGRFTISRDNAKNTVYLQMNNLRPEDTAVYYCHVDEVRESSWTTSNLWGQGTQVTVSSGGGGSGGGGSGGGGSVQLQESGGGLVQPGGSLRLSCAASGSIFTINSMGWYRQAPGKWRELVATVTRGGNTNYANSVKGRFTISRDNAKNTVYLQMNTLRPEDTAVYYCHLDEVRDSSWTTSNLWGQGTQVTVSSGGGGSGGGGSGGGGSVQLQESGGGLVQPGGSLRLSCAASGSIFSINSMGWYRQAPGKWRELVATVTRGGSTNYANSVKGRFTISRDNAKNTVYLQMNTLRPEDTAVYYCHLDEVRDSSWTTSNLWGQGTQVTVSS
In the experiment with AAV8, B8 yielded a Kd of 1.02 nM, a koff of 1.63e-05 s⁻¹ and a kon of 16000 M⁻¹ s⁻¹.
